Test results as given in the supplement of paper PMC11136658.

Test system: peptide library, one residue held at a place counted from the Y acceptor
Assay: relative phosphorylation of the sub-library (ratio to the mean residue at this position); higher = residue favoured
Summary of the method: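 Every value reflects phosphorylation relative to the mean randomized residue. The sum of the 18 randomized residues, or 16 in the Ser/Thr-free library, served to normalize intensities at each position, which were then multiplied by that number. Intensities came from phosphorimaging with ImageQuant of biotinylated Tyr-centred peptides captured on streptavidin membranes after 90 min with purified recombinant kinases and 50 μM ATP plus γ-32P-ATP.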

NTRK1, construct: aa440-end, human, sequence (P04629 440-796, looked up): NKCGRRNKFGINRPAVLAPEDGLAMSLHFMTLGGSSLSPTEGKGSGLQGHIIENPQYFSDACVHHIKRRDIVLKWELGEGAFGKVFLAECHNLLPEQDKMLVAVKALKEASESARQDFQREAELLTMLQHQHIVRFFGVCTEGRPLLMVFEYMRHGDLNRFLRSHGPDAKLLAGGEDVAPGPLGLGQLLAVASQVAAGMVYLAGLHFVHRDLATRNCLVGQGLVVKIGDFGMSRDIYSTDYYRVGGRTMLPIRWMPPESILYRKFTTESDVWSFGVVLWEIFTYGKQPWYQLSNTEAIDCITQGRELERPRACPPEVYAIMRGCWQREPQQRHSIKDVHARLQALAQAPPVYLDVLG
NTRK2, construct: aa455-end, human, sequence (Q16620 455-822, looked up): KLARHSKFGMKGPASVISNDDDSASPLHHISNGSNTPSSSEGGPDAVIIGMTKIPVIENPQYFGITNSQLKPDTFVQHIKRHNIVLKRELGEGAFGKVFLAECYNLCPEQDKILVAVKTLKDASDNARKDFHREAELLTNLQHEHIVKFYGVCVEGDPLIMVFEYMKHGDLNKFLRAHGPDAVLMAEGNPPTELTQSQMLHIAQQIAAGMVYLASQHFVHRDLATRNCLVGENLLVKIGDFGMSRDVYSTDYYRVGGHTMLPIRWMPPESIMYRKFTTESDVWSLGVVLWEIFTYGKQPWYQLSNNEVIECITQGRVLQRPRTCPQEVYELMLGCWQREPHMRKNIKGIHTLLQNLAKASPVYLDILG
NEK10, construct: aa266-895, human, sequence (Q6ZWH5 266-895, looked up): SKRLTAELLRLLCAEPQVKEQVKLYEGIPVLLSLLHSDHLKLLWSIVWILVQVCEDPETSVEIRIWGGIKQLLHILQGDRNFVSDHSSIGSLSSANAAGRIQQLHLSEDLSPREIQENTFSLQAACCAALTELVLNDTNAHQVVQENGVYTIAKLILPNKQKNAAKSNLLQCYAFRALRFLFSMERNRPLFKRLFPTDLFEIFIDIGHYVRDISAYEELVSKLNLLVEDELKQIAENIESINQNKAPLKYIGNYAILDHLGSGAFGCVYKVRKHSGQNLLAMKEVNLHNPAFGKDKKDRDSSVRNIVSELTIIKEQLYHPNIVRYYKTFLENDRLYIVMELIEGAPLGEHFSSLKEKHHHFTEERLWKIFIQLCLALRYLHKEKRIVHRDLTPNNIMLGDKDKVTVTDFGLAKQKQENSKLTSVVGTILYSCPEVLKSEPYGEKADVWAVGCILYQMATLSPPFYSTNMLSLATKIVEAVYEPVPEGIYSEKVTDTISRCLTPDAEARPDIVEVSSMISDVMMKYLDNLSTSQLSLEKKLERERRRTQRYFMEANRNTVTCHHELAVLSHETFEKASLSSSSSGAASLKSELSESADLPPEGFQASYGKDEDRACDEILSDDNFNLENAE

NEK10, construct: aa266-895, human (from UniProt Q6ZWH5)
relative phosphorylation
Conditions | at +1 | at +2 | at +3 | at +4 | at +5 | at -1 | at -2 | at -3 | at -4 | at -5
A fixed | 0.35 | 0.54 | 0.755 | 0.959 | 0.812 | 0.916 | 0.855 | 1.05 | 1.13 | 1.08
D fixed | 0.229 | 0.823 | 0.78 | 0.87 | 0.766 | 0.564 | 0.825 | 0.727 | 0.992 | 0.965
E fixed | 0.173 | 0.582 | 0.836 | 0.71 | 0.776 | 0.798 | 0.772 | 0.745 | 0.897 | 0.981
F fixed | 2.39 | 0.883 | 1.07 | 1.05 | 1.09 | 1.19 | 1.25 | 0.991 | 0.956 | 0.969
G fixed | 0.353 | 1.31 | 1.12 | 1.1 | 1.08 | 1.01 | 1.12 | 0.981 | 1.16 | 1.17
H fixed | 3.09 | 1.41 | 1.18 | 1.06 | 1.05 | 1.28 | 1.12 | 1.16 | 1.14 | 1.15
I fixed | 0.888 | 0.45 | 0.571 | 0.794 | 0.692 | 0.801 | 0.637 | 0.801 | 0.805 | 0.869
K fixed | 0.373 | 1.05 | 1.13 | 1.21 | 1.41 | 0.876 | 1.13 | 1.21 | 1.27 | 1.2
L fixed | 1.8 | 0.577 | 0.754 | 0.944 | 0.887 | 1.21 | 1.06 | 1.09 | 0.852 | 0.826
M fixed | 0.954 | 0.783 | 1.12 | 1 | 0.918 | 1.13 | 0.989 | 0.982 | 1.01 | 0.867
N fixed | 0.565 | 1.55 | 1.24 | 1.02 | 1.07 | 0.796 | 1.4 | 1.02 | 0.84 | 0.987
P fixed | 0.387 | 1.63 | 1.29 | 1.13 | 1.05 | 0.715 | 1.02 | 0.946 | 1.14 | 1.07
Q fixed | 0.461 | 1.65 | 1.28 | 0.915 | 1.06 | 0.916 | 0.998 | 1.07 | 0.974 | 0.931
R fixed | 0.451 | 1.25 | 1.34 | 1.29 | 1.49 | 1.05 | 1.19 | 1.55 | 1.19 | 1.31
V fixed | 0.455 | 0.473 | 0.584 | 0.771 | 0.703 | 0.708 | 0.607 | 0.695 | 0.673 | 0.735
W fixed | 3.08 | 1.04 | 0.934 | 1.17 | 1.15 | 2.04 | 1.03 | 0.981 | 0.971 | 0.901
pThr fixed | 0.242 | 0.585 | 0.599 | 0.764 | 0.714 | 0.515 | 0.453 | 0.608 | 0.64 | 0.774
pTyr fixed | 0.248 | 0.44 | 0.693 | 0.723 | 0.72 | 1.03 | 0.783 | 0.764 | 0.734 | 0.812

NTRK1, construct: aa440-end, human (from UniProt P04629)
relative phosphorylation
Conditions | at +1 | at +2 | at +3 | at +4 | at +5 | at -1 | at -2 | at -3 | at -4 | at -5
A fixed | 1.34 | 0.684 | 0.751 | 0.76 | 0.909 | 0.676 | 0.944 | 0.792 | 1.02 | 0.882
D fixed | 0.529 | 0.79 | 0.541 | 1.4 | 1.19 | 2.24 | 1.22 | 1.3 | 1.08 | 1.17
E fixed | 0.936 | 1.28 | 0.45 | 1.52 | 1.12 | 1.07 | 1.34 | 1.5 | 1.32 | 1.03
F fixed | 1.66 | 1.26 | 1.82 | 0.952 | 1.24 | 0.966 | 0.812 | 1.12 | 1.33 | 1.04
G fixed | 0.711 | 0.438 | 0.891 | 1.25 | 1.07 | 0.578 | 1.05 | 0.955 | 1.05 | 1.08
H fixed | 0.979 | 0.731 | 0.706 | 1.09 | 0.991 | 1.42 | 0.947 | 1.15 | 0.963 | 1.04
I fixed | 1.66 | 1.28 | 2.02 | 0.897 | 0.748 | 1.32 | 0.854 | 0.777 | 0.837 | 0.946
K fixed | 0.236 | 0.577 | 0.271 | 0.658 | 0.783 | 0.273 | 0.811 | 0.691 | 0.722 | 0.782
L fixed | 1.2 | 1.2 | 1.92 | 0.734 | 0.983 | 1.17 | 1.01 | 0.794 | 0.939 | 0.93
M fixed | 1.79 | 1.4 | 1.64 | 1.04 | 1.03 | 0.884 | 1.02 | 0.979 | 0.884 | 0.997
N fixed | 0.441 | 0.952 | 0.475 | 0.899 | 1 | 2.12 | 1.25 | 1.39 | 0.93 | 1.23
P fixed | 0.267 | 0.688 | 0.885 | 1.15 | 1.42 | 0.942 | 0.936 | 0.875 | 1.12 | 0.996
Q fixed | 0.984 | 0.922 | 0.544 | 1.01 | 0.944 | 0.869 | 1.18 | 0.872 | 1.1 | 1.04
R fixed | 0.273 | 0.983 | 0.419 | 0.803 | 0.883 | 0.349 | 0.871 | 0.854 | 0.79 | 1.02
S fixed | 0.736 | 0.743 | 0.725 | 0.829 | 0.788 | 0.686 | 1.11 | 1.01 | 0.803 | 0.89
T fixed | 0.916 | 0.955 | 0.868 | 0.85 | 0.715 | 0.873 | 0.897 | 0.987 | 0.671 | 0.939
V fixed | 1.84 | 1.06 | 1.38 | 0.784 | 0.743 | 0.951 | 0.756 | 0.696 | 0.791 | 0.785
W fixed | 1.5 | 2.06 | 1.71 | 1.37 | 1.43 | 0.614 | 0.99 | 1.25 | 1.66 | 1.2
pThr fixed | 1.54 | 0.962 | 0.449 | 1.08 | 0.958 | 0.981 | 0.838 | 0.952 | 0.96 | 1.03
pTyr fixed | 2.47 | 2.33 | 0.884 | 1.74 | 1.01 | 4.13 | 1.32 | 1.48 | 1.44 | 1.23

NTRK2, construct: aa455-end, human (from UniProt Q16620)
relative phosphorylation
Conditions | at +1 | at +2 | at +3 | at +4 | at +5 | at -1 | at -2 | at -3 | at -4 | at -5
A fixed | 1.42 | 0.697 | 0.136 | 0.894 | 0.979 | 0.684 | 0.962 | 0.876 | 0.971 | 0.87
D fixed | 0.407 | 0.696 | 0.42 | 0.788 | 1.01 | 2.06 | 1.2 | 1.25 | 1.11 | 1.21
E fixed | 0.546 | 0.786 | 0.308 | 0.894 | 0.831 | 0.84 | 1.28 | 1.36 | 1.33 | 1.1
F fixed | 1.81 | 1.35 | 1.88 | 1.09 | 1.16 | 1.12 | 0.959 | 1.15 | 1.32 | 1.06
G fixed | 0.747 | 0.491 | 0.569 | 1.18 | 1.05 | 0.45 | 1.02 | 0.864 | 0.996 | 0.954
H fixed | 1.23 | 0.808 | 0.871 | 1.11 | 1.01 | 1.36 | 1.13 | 1.19 | 1.05 | 1.09
I fixed | 1.58 | 1.27 | 2.41 | 0.847 | 0.742 | 1.31 | 0.745 | 0.661 | 0.825 | 0.894
K fixed | 0.257 | 0.893 | 0.387 | 0.97 | 0.979 | 0.259 | 0.841 | 0.732 | 0.752 | 1.05
L fixed | 1.05 | 1.1 | 2.12 | 0.898 | 0.989 | 1.38 | 1.03 | 0.878 | 0.921 | 0.923
M fixed | 1.61 | 1.17 | 1.63 | 1.02 | 0.922 | 0.958 | 0.809 | 0.982 | 0.82 | 0.979
N fixed | 0.37 | 0.919 | 0.467 | 0.774 | 0.928 | 2.13 | 1.22 | 1.26 | 0.921 | 1.13
P fixed | 0.261 | 0.723 | 0.785 | 1.06 | 1.23 | 0.772 | 0.886 | 0.789 | 1.1 | 0.884
Q fixed | 0.811 | 0.927 | 0.546 | 0.993 | 0.912 | 0.907 | 1.08 | 0.964 | 1.12 | 1.09
R fixed | 0.266 | 1.16 | 0.65 | 0.997 | 1.03 | 0.258 | 0.877 | 0.785 | 0.84 | 1.06
S fixed | 0.824 | 0.914 | 0.728 | 0.965 | 1.06 | 0.713 | 1.15 | 1.11 | 0.774 | 0.872
T fixed | 0.776 | 0.897 | 0.702 | 0.838 | 0.914 | 0.805 | 0.888 | 0.93 | 0.635 | 0.776
V fixed | 2.18 | 1.24 | 1.69 | 0.911 | 0.83 | 1.17 | 0.802 | 0.769 | 0.81 | 0.806
W fixed | 1.85 | 1.95 | 1.72 | 1.76 | 1.42 | 0.822 | 1.11 | 1.46 | 1.71 | 1.25
pThr fixed | 1.17 | 0.567 | 0.302 | 0.689 | 0.807 | 0.824 | 0.828 | 0.83 | 0.932 | 0.913
pTyr fixed | 1.77 | 1.3 | 0.567 | 1.03 | 0.776 | 3.47 | 1.13 | 1.22 | 1.26 | 0.986
